Data as given in patent US10066025B2, “Compositions and methods for detecting, treating and preventing diseases and disorders” (YALE UNIVERSITY, priority 2012, dated 2018).

Experiments:
[1] = tested on: renal ischemia/reperfusion (IR) injury; test: Murine model of renal ischemia/reperfusion (IR) injury, plasma creatinine; type: in vivo, mice
Description: (§1) Adult male renalase deficient (KO) mice (Wu et al., 2011, Kidney Int 79: 853-860) on a C57BL/6 background were subjected to renal ischemia/reperfusion (IR) as described (Kim et al., 2009, Kidney Int 75: 809-823; Kim et al., 2010, Am J Physiol Renal Physiol 299(2):F347-58). Renalase KO or wild type (WT) mice (C57BL/6 from Harlan Labs, Indianapolis, Ind.) were subjected to sham-operation or to 20 min. (moderate) or 30 min. (severe) renal ischemia and 24 hr. reperfusion. To test the renal protective effects of recombinant human renalase, mice were pretreated with saline (vehicle) or with recombinant renalase (0.5, 1.5 or 4.5 mg/kg, s.c.) 10 min. prior to 30 min. renal ischemia. It was also tested whether renalase treatment after completion of renal ischemia also provides renal protection. Separate cohorts of mice were treated with saline or with renalase (1.5 mg/kg, s.c.) 30 min. or 60 min. after reperfusion of the ischemic kidney. To test whether blocking alpha receptors would mimic the renal protective effects of human recombinant renalase administration, phentolamine (an alpha receptor antagonist, 5 mg/kg, i.p.) was given in some mice 15 min. before renal ischemia.
Plasma creatinine was measured as described with an enzymatic creatinine reagent kit according to the manufacturer's instructions (Thermo Fisher Scientific, Waltham, Mass.) (Slot, 1965, J Clin Lab Invest 17: 381-387).
After animal care and use committee approval, adult male C57BL/6 (Harlan Labs, Indianapolis, Ind.) were subjected to sham-operation or to 30 minutes of renal ischemia followed by 24 hrs of reperfusion as previously described (Lee et al., 2004, American journal of physiology. Renal physiology 286:F298-306). To test the renal protective effects of renalase peptides (RP-220, RP-H220 and RP-224), mice were pretreated with saline (vehicle) or with renalase peptides (100 μg subcutaneous) 10 to 30 minutes prior to renal ischemia.
Blood was collected from mice anesthetized with isoflurane via cardiac puncture into a heparinized syringe and was subsequently centrifuged to separate plasma. Samples were submitted to the Yale O'Brien Kidney Center for measurement of BUN and creatinine. Plasma creatinine was measured either by an enzymatic creatinine reagent kit according to the manufacturer's instructions (Thermo Fisher Scientific, Waltham, Mass.) or by HPLC. These methods of creatinine measurement largely eliminate the interferences from mouse plasma chromagens, known to occur with the Jaffe method.

plasma norepinephrine = test: Plasma norepinephrine after renal IR (ELISA); type: in vivo; details: 1.5 mg/kg; mice subjected to renal IR; vehicle 2.4±0.13 ng/mL
Description: as §1
Plasma norepinephrine in mice subjected to sham-operation or to renal IR was measured with a commercial ELISA kit according to the manufacturer's instructions (Rocky Mountain Diagnostics, Colorado Springs, Colo.).

[2] = tested on: renal ischemia/reperfusion (IR) injury; test: Histological detection of necrosis, apoptosis, neutrophil and macrophage infiltration after renal IR; type: in vivo, mice
Description: Adult male renalase deficient (KO) mice (Wu et al., 2011, Kidney Int 79: 853-860) on a C57BL/6 background were subjected to renal ischemia/reperfusion (IR) as described (Kim et al., 2009, Kidney Int 75: 809-823; Kim et al., 2010, Am J Physiol Renal Physiol 299(2):[…]-58). Renalase KO or wild type (WT) mice (C57BL/6 from Harlan Labs, Indianapolis, Ind.) were subjected to sham-operation or to 20 min. (moderate) or 30 min. (severe) renal ischemia and 24 hr. reperfusion. To test the renal protective effects of recombinant human renalase, mice were pretreated with saline (vehicle) or with recombinant renalase (0.5, 1.5 or 4.5 mg/kg, s.c.) 10 min. prior to 30 min. renal ischemia. It was also tested whether renalase treatment after completion of renal ischemia also provides renal protection. Separate cohorts of mice were treated with saline or with renalase (1.5 mg/kg, s.c.) 30 min. or 60 min. after reperfusion of the ischemic kidney. To test whether blocking alpha receptors would mimic the renal protective effects of human recombinant renalase administration, phentolamine (an alpha receptor antagonist, 5 mg/kg, i.p.) was given in some mice 15 min. before renal ischemia. An established grading scale of necrotic injury (0-4, Renal Injury Score) to the proximal tubules was used for the histopathological assessment of IR-induced damage as outlined by Jablonski et al. (1983, Transplantation 35: 198-204) and as described in previous studies (Lee et al., 2004, J Am Soc Nephrol 15: 102-111; Lee et al., 2004, Am J Physiol Renal Physiol 286: […]-[…]). Apoptosis was detected after renal IR with TUNEL staining as described (Park et al., 2011, Lab Invest 91: 63-84) using a commercially available in situ cell death detection kit (Roche, Indianapolis, Ind.) according to the instructions provided by the manufacturer. Kidney neutrophil and macrophage infiltrations were assessed with immunohistochemistry 24 hr. after IR as described previously (Park et al., 2011, Lab Invest 91: 63-84). Neutrophils and macrophages infiltrating the kidney were quantified in 5-7 randomly chosen 200× (neutrophils) or 400× (macrophages) microscope images fields in the corticomedullary junction and results were expressed as neutrophils counted per 200-400× field.

HK-2 cells [3] = test: HK-2 cell necrosis induced with 2 mM H2O2 (LDH release); type: cell-based, human
Description: (§2) HK2 cells (human proximal tubular line) obtained from ATTC (Manassas, Va., USA) were cultured in DMEM/F12 supplemented with glutamine, 10% FBS and antibiotics, and were maintained at 37° C. in 5% CO2. Cells were exposed to cisplatin (20 μM) in the presence or absence of renalase for 24 hrs, and cell viability was assessed by the WST1 method (Roche Applied Science, Germany). Cells were then harvested in RIPA buffer (20 mM Tris-HCl pH 7.5, 150 mM NaCl, 1 mM Na2EDTA, 1 mM EGTA, 1% NP-40, 1% sodium deoxycholate, 2.5 mM sodium pyrophosphate, 1 mM β-glycerophosphate, 1 mM Na3VO4, 1 μg/ml leupeptin) supplemented with a protease and phosphatase inhibitor cocktail (Roche Applied Science, Germany). Proteins were separated by SDS-PAGE and Western blotting was carried out using the following antibodies: anti-renalase monoclonal (Desir et al., 2012, J Am Heart Assoc. 1:e002634; (Lee et al., 2013, J Am Soc Nephrol 24:445-455); anti caspase 3 (Cell Signaling Technology, MA, USA) and anti Bcl2 (Thermo Scientific, USA). Necrotic injury in HK-2 cells (ATCC, Manassas, Va.) was induced with exposure to 2 mM H2O2 for 2-8 hr and lactate dehydrogenase (LDH) released into cell culture media was measured as described using a commercial LDH assay kit (Promega, Madison, Wis.) (Lee and Emala, 2002, American journal of physiology. Renal physiology 282:F844-852).

HK-2 cells [4] = test: HK-2 cell cisplatin toxicity (WST-1 viability, western blot); type: cell-based, human; details: 20 μM cisplatin, 24 hrs
Description: Cultured HK-2 cells were incubated with 20 μM cisplatin for 24 hours with and without recombinant renalase. Renalase expression was examined by Western blot and cell viability (mitochondrial integrity) was determined spectrophotometrically using WST-1, a tetrazolium salt that is cleaved, by mitochondrial dehydrogenases of metabolically active and viable cells, to formazan (420-480 nm) (Boehringer Mannheim, Germany).
as §2

[5] = tested on: PI3K/AKT and MAPK pathways; test: AKT and MAPK signaling and Bcl-2 expression by western blot; type: cell-based, human
Description: FIG. 12, comprising FIGS. 12A through 12E, is a set of images and graphs showing renalase upregulates Bcl-2, activates PI3K/AKT, ERK, p38, and inhibits JNK. Western blot analysis; P− indicates phosphorylated, activated proteins; signals normalized to GAPDH loading control, then changes in protein phosphorylation (increase=activation, decrease=inhibition) from time 0 are calculated. FIG. 12A: HK-2 and HUVEC cells incubated with renalase for 24 hrs; FIG. 12B: Western blot of time course of AKT and MAPK signaling by renalase, HK-2 cells incubated with renalase for indicated time; changes over baseline in 4c-d are significant (p<0.05); FIG. 12C: Activation of AKT(T308), AKT(5473) and ERK; FIG. 12D: Inhibition of JNK; FIG. 12E: Marked and sustained (60 min) upregulation of p38 by renalase in the presence of cisplatin, western blot for time course, REN=renalase, CP=cisplatin.
MAPK signaling by renalase and renalase peptides. Western blot analysis; ERK: Extracellular signal-Regulated Kinase 1 and 2; JNK: c-Jun N-terminal Kinases; AKT: protein kinase B; p-indicates phosphorylated, activated proteins; representative blot, n=3 (FIG. 20A). Renalase activates AKT (FIG. 20B). Western blot analysis; P− indicates phosphorylated, activated proteins Representative blot, n=3 (FIG. 20B, left panel). Signals normalized to GAPDH loading control; n=3, change over baseline statistically significant (P<0.05) from 1-60 min for ERK, p38 and AKT (T308), and at 30 min only for AKT (S473) (FIG. 20B, right panel). ERK or AKT inhibition abrogates protective effect of RP-H220 (FIG. 20C). Plasma creatinine levels from mice subjected to sham-surgery or to renal ischemia and reperfusion (IR); Renalase WT mice were subjected to sham-surgery or to 30 min renal IR. For mice subjected to renal IR, RP-H220 or vehicle (saline) was injected 10 min prior to renal ischemia. Some animals were pretreated with either the ERK inhibitor PD98059 or the PI3K/AKT inhibitor wortmanin. (N=6-8 per group). *: P<0.05 vs. vehicle-treated mice subjected to sham-surgery; #: P<0.05 vs. vehicle-treated WT mice subjected to renal IR (FIG. 20C).

systemic blood pressure = details: Xu et al., 2005, cited from earlier work
[6] = cited from earlier work
[7] = treated before renal ischemia, 30 min. ischemia, 24 hr. reperfusion

B1: recombinant renalase: human recombinant renalase, 38 kDa FAD-dependent amine oxidase; renalase polypeptide SEQ ID NO: 9 or 10 (protein, UniProt Q5VYX0 18-342, looked up)
Renalase: ALLRRQTSGPLYLAVWDKAEDSGGRMTTACSPHNPQCTADLGAQYITCTPHYAKKHQRFYDELLAYGVLRPLSSPIEGMVMKEGDCNFVAPQGISSIIKHYLKESGAEVYFRHRVTQINLRDDKWEVSKQTGSPEQFDLIVLTMPVPEILQLQGDITTLISECQRQQLEAVSYSSRYALGLFYEAGTKIDVPWAGQYITSNPCIRFVSIDNKKRNIESSEIGPSLVIHTTVPFGVTYLEHSIEDVQELVFQQLENILPGLPQPIATKCQKWRHSQVTNAAANCPGQMTLHHKPFLACGGDGFTQSNFDGCITSALCVLEALKNYI
protection against renal IR injury, post-ischemic treatment ([1]; 1.5 mg/kg given 30 min. after reperfusion): protective against renal IR injury | renal protection at higher dose compared with 1.5 mg/kg ([1]; 4.5 mg/kg s.c. 10 min. before renal ischemia): provided reduced renal protection | increases in plasma creatinine after renal IR ([1]; 0.5, 1.5 or 4.5 mg/kg s.c. 10 min. before 30 min. renal ischemia, 24 hr. reperfusion): significantly attenuated the increases in plasma creatinine | protection against renal IR injury, post-ischemic treatment ([1]; given 60 min. after reperfusion): did not provide renal protection | plasma creatinine ([1]; recombinant renalase 1.5 mg/kg, 30 min. warm ischemia, decreased from ~2.4 mg/dL): 1.4 mg/dL | plasma norepinephrine (plasma norepinephrine): 1.6 ± 0.2 ng/mL | apoptotic TUNEL-positive cells in the kidney ([2]; 1.5 mg/kg s.c. 10 min. before renal ischemia): significantly reduced the number of apoptotic TUNEL-positive cells | renal histological injury (hematoxylin and eosin) ([2]; 1.5 mg/kg, renalase WT mice vs. vehicle): dramatically reduced injury | Jablonski scale renal injury score (0-4) ([2]; renalase WT mice, 30 min. renal IR, 24 hr. after IR, vs. vehicle): significantly lower renal injury scores | macrophages infiltrating the kidney after IR (F4/80) [2, 7]: significantly reduced number of macrophages | neutrophils infiltrating the kidney after IR [2, 7]: significantly reduced number of neutrophils | LDH released at 6 hr (HK-2 cells [3]; 10 μg/ml, 2 mM H2O2, vehicle LDH=47+3%): 28±2% | necrosis induced with 2 mM H2O2 (HK-2 cells [3]; vs. vehicle-treated HK-2 cells): significantly reduced necrosis | cell survival / protection against cisplatin toxicity (HK-2 cells [4]): improved HK-2 cell survival | cell survival / protection against cisplatin toxicity (HK-2 cells [4]; listed as exogenous renalase): reversed | Bcl-2 expression (HK-2 cells [4]; western blot): increased Bcl-2 expression | caspase-3 activation (HK-2 cells [4]; western blot): decreased caspase-3 activation | cellular renalase expression (HK-2 cells [4]; western blot): restored cellular renalase expression | caspase-3 activation (HK-2 cells [4]; western blot, listed as Renalase): inhibited caspase-3 activation | Bcl-2 expression ([5]; HK-2 and human vein endothelial cells (HUVEC) at 24 hrs): upregulates Bcl-2 expression | decrease in JNK-p54/p46 phosphorylation ([5]; HK-2 cells): ~95% | AKT and MAPK signaling (phosphorylation of ERK, p38, AKT) ([5]; HK-2 cells in culture): rapid and transient increase in phosphorylated | activation of AKT ([5]; at 15 min, HK-2 cells): ~45 fold | activation of ERK ([5]; at 15 min, HK-2 cells): ~35 fold | activation of AKT and p38 ([5]; cells treated with cisplatin): marked and sustained activation | reduction of mean arterial pressure (systemic blood pressure; 4 mg/kg dose): ~40% | blood pressure when injected into rodents (systemic blood pressure): marked decrease in blood pressure | increase in rate of epinephrine metabolism in the presence of NADH [6]: 18 fold
